US20150344570A1 (published 2015)

Molecular target: T1, FcγRIIIa extracellular domain with C-terminal His tag (human, UniProt P08637 17-208)
T1 construct: extracellular domain; also called FcgRIIIa; 3a; not shown: His tag attached to the C terminus
Experiment: SPR Biacore, captured antibody, FcγR analyte, relative binding
Method in brief: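 Antibodies captured on antigen-peptide chips (CM5 amine-coupled or SA with biotinylated peptide), then each FcγR analyte, diluted in HBS-EP+, was injected at 25° C on Biacore T100. Surfaces regenerated with 10 mM glycine-HCl pH 1.5; binding expressed relative to the reference antibody.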

T1 sequence (P08637 17-208): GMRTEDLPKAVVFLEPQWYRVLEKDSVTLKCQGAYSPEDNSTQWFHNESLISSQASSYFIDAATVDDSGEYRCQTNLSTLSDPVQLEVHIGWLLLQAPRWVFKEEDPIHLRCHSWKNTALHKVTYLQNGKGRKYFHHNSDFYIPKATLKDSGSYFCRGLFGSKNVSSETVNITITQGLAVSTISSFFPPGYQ

He/Con_3a | Binder
112 % of HeCon Ab GpH7-A5/GpH7-B3/GpL16-k0 (=100) | GpH7-A5/GpH7-B3 variant I336_03V/GpL16-k0 (antibody, human IgG1, kappa, also called He Ab I336_03V) heavy 1: not shown heavy 2: not shown light: DIVMTQSPLSLPVTPGEPASISCQASESLVHSNRNTYLHWYLQKPGQSPQLLIYKVSNRFSGVPDRFSGSGSGTDFTLKISRVEAEDVGVYYCSQNTHVPPTFGQGTKVEIERTVAAPSVFIFPPSDEQLKSGTASVVCLLNNFYPREAKVQWKVDNALQSGNSQESVTEQDSKDSTYSLSSTLTLSKADYEKHKVYACEVTHQGLSSPVTKSFNRGEC
139 % of HeCon Ab GpH7-A5/GpH7-B3/GpL16-k0 (=100) | GpH7-A5/GpH7-B3 variant K326_07I/GpL16-k0 (antibody, human IgG1, kappa, also called He Ab K326_07I) heavy 1: not shown heavy 2: not shown light: DIVMTQSPLSLPVTPGEPASISCQASESLVHSNRNTYLHWYLQKPGQSPQLLIYKVSNRFSGVPDRFSGSGSGTDFTLKISRVEAEDVGVYYCSQNTHVPPTFGQGTKVEIERTVAAPSVFIFPPSDEQLKSGTASVVCLLNNFYPREAKVQWKVDNALQSGNSQESVTEQDSKDSTYSLSSTLTLSKADYEKHKVYACEVTHQGLSSPVTKSFNRGEC
122 % of HeCon Ab GpH7-A5/GpH7-B3/GpL16-k0 (=100) | GpH7-A5/GpH7-B3 variant K326_03V/GpL16-k0 (antibody, human IgG1, kappa, also called He Ab K326_03V) heavy 1: not shown heavy 2: not shown light: DIVMTQSPLSLPVTPGEPASISCQASESLVHSNRNTYLHWYLQKPGQSPQLLIYKVSNRFSGVPDRFSGSGSGTDFTLKISRVEAEDVGVYYCSQNTHVPPTFGQGTKVEIERTVAAPSVFIFPPSDEQLKSGTASVVCLLNNFYPREAKVQWKVDNALQSGNSQESVTEQDSKDSTYSLSSTLTLSKADYEKHKVYACEVTHQGLSSPVTKSFNRGEC
115 % of HeCon Ab GpH7-A5/GpH7-B3/GpL16-k0 (=100) | GpH7-A5/GpH7-B3 variant K326_06M/GpL16-k0 (antibody, human IgG1, kappa, also called He Ab K326_06M) heavy 1: not shown heavy 2: not shown light: DIVMTQSPLSLPVTPGEPASISCQASESLVHSNRNTYLHWYLQKPGQSPQLLIYKVSNRFSGVPDRFSGSGSGTDFTLKISRVEAEDVGVYYCSQNTHVPPTFGQGTKVEIERTVAAPSVFIFPPSDEQLKSGTASVVCLLNNFYPREAKVQWKVDNALQSGNSQESVTEQDSKDSTYSLSSTLTLSKADYEKHKVYACEVTHQGLSSPVTKSFNRGEC
103 % of HeCon Ab GpH7-A5/GpH7-B3/GpL16-k0 (=100) | GpH7-A5/GpH7-B3 variant K326_04F/GpL16-k0 (antibody, human IgG1, kappa, also called He Ab K326_04F) heavy 1: not shown heavy 2: not shown light: DIVMTQSPLSLPVTPGEPASISCQASESLVHSNRNTYLHWYLQKPGQSPQLLIYKVSNRFSGVPDRFSGSGSGTDFTLKISRVEAEDVGVYYCSQNTHVPPTFGQGTKVEIERTVAAPSVFIFPPSDEQLKSGTASVVCLLNNFYPREAKVQWKVDNALQSGNSQESVTEQDSKDSTYSLSSTLTLSKADYEKHKVYACEVTHQGLSSPVTKSFNRGEC
119 % of HeCon Ab GpH7-A5/GpH7-B3/GpL16-k0 (=100) | GpH7-A5/GpH7-B3 variant I336_10E/GpL16-k0 (antibody, human IgG1, kappa, also called He Ab I336_10E) heavy 1: not shown heavy 2: not shown light: DIVMTQSPLSLPVTPGEPASISCQASESLVHSNRNTYLHWYLQKPGQSPQLLIYKVSNRFSGVPDRFSGSGSGTDFTLKISRVEAEDVGVYYCSQNTHVPPTFGQGTKVEIERTVAAPSVFIFPPSDEQLKSGTASVVCLLNNFYPREAKVQWKVDNALQSGNSQESVTEQDSKDSTYSLSSTLTLSKADYEKHKVYACEVTHQGLSSPVTKSFNRGEC
102 % of HeCon Ab GpH7-A5/GpH7-B3/GpL16-k0 (=100) | GpH7-A5/GpH7-B3 variant I336_13S/GpL16-k0 (antibody, human IgG1, kappa, also called He Ab I336_13S) heavy 1: not shown heavy 2: not shown light: DIVMTQSPLSLPVTPGEPASISCQASESLVHSNRNTYLHWYLQKPGQSPQLLIYKVSNRFSGVPDRFSGSGSGTDFTLKISRVEAEDVGVYYCSQNTHVPPTFGQGTKVEIERTVAAPSVFIFPPSDEQLKSGTASVVCLLNNFYPREAKVQWKVDNALQSGNSQESVTEQDSKDSTYSLSSTLTLSKADYEKHKVYACEVTHQGLSSPVTKSFNRGEC
106 % of HeCon Ab GpH7-A5/GpH7-B3/GpL16-k0 (=100) | GpH7-A5/GpH7-B3 variant I336_09D/GpL16-k0 (antibody, human IgG1, kappa, also called He Ab I336_09D) heavy 1: not shown heavy 2: not shown light: DIVMTQSPLSLPVTPGEPASISCQASESLVHSNRNTYLHWYLQKPGQSPQLLIYKVSNRFSGVPDRFSGSGSGTDFTLKISRVEAEDVGVYYCSQNTHVPPTFGQGTKVEIERTVAAPSVFIFPPSDEQLKSGTASVVCLLNNFYPREAKVQWKVDNALQSGNSQESVTEQDSKDSTYSLSSTLTLSKADYEKHKVYACEVTHQGLSSPVTKSFNRGEC
108 % of HeCon Ab GpH7-A5/GpH7-B3/GpL16-k0 (=100) | GpH7-A5/GpH7-B3 variant I336_14T/GpL16-k0 (antibody, human IgG1, kappa, also called He Ab I336_14T) heavy 1: not shown heavy 2: not shown light: DIVMTQSPLSLPVTPGEPASISCQASESLVHSNRNTYLHWYLQKPGQSPQLLIYKVSNRFSGVPDRFSGSGSGTDFTLKISRVEAEDVGVYYCSQNTHVPPTFGQGTKVEIERTVAAPSVFIFPPSDEQLKSGTASVVCLLNNFYPREAKVQWKVDNALQSGNSQESVTEQDSKDSTYSLSSTLTLSKADYEKHKVYACEVTHQGLSSPVTKSFNRGEC
126 % of HeCon Ab GpH7-A5/GpH7-B3/GpL16-k0 (=100) | GpH7-A5/GpH7-B3 variant K326_14T/GpL16-k0 (antibody, human IgG1, kappa, also called He Ab K326_14T) heavy 1: not shown heavy 2: not shown light: DIVMTQSPLSLPVTPGEPASISCQASESLVHSNRNTYLHWYLQKPGQSPQLLIYKVSNRFSGVPDRFSGSGSGTDFTLKISRVEAEDVGVYYCSQNTHVPPTFGQGTKVEIERTVAAPSVFIFPPSDEQLKSGTASVVCLLNNFYPREAKVQWKVDNALQSGNSQESVTEQDSKDSTYSLSSTLTLSKADYEKHKVYACEVTHQGLSSPVTKSFNRGEC
104 % of HeCon Ab GpH7-A5/GpH7-B3/GpL16-k0 (=100) | GpH7-A5/GpH7-B3 variant I336_18N/GpL16-k0 (antibody, human IgG1, kappa, also called He Ab I336_18N) heavy 1: not shown heavy 2: not shown light: DIVMTQSPLSLPVTPGEPASISCQASESLVHSNRNTYLHWYLQKPGQSPQLLIYKVSNRFSGVPDRFSGSGSGTDFTLKISRVEAEDVGVYYCSQNTHVPPTFGQGTKVEIERTVAAPSVFIFPPSDEQLKSGTASVVCLLNNFYPREAKVQWKVDNALQSGNSQESVTEQDSKDSTYSLSSTLTLSKADYEKHKVYACEVTHQGLSSPVTKSFNRGEC
112 % of HeCon Ab GpH7-A5/GpH7-B3/GpL16-k0 (=100) | GpH7-A5/GpH7-B3 variant K326_15Y/GpL16-k0 (antibody, human IgG1, kappa, also called He Ab K326_15Y) heavy 1: not shown heavy 2: not shown light: DIVMTQSPLSLPVTPGEPASISCQASESLVHSNRNTYLHWYLQKPGQSPQLLIYKVSNRFSGVPDRFSGSGSGTDFTLKISRVEAEDVGVYYCSQNTHVPPTFGQGTKVEIERTVAAPSVFIFPPSDEQLKSGTASVVCLLNNFYPREAKVQWKVDNALQSGNSQESVTEQDSKDSTYSLSSTLTLSKADYEKHKVYACEVTHQGLSSPVTKSFNRGEC
134 % of HeCon Ab GpH7-A5/GpH7-B3/GpL16-k0 (=100) | GpH7-A5/GpH7-B3 variant K326_09D/GpL16-k0 (antibody, human IgG1, kappa, also called He Ab K326_09D) heavy 1: not shown heavy 2: not shown light: DIVMTQSPLSLPVTPGEPASISCQASESLVHSNRNTYLHWYLQKPGQSPQLLIYKVSNRFSGVPDRFSGSGSGTDFTLKISRVEAEDVGVYYCSQNTHVPPTFGQGTKVEIERTVAAPSVFIFPPSDEQLKSGTASVVCLLNNFYPREAKVQWKVDNALQSGNSQESVTEQDSKDSTYSLSSTLTLSKADYEKHKVYACEVTHQGLSSPVTKSFNRGEC
109 % of HeCon Ab GpH7-A5/GpH7-B3/GpL16-k0 (=100) | GpH7-A5/GpH7-B3 variant I336_06M/GpL16-k0 (antibody, human IgG1, kappa, also called He Ab I336_06M) heavy 1: not shown heavy 2: not shown light: DIVMTQSPLSLPVTPGEPASISCQASESLVHSNRNTYLHWYLQKPGQSPQLLIYKVSNRFSGVPDRFSGSGSGTDFTLKISRVEAEDVGVYYCSQNTHVPPTFGQGTKVEIERTVAAPSVFIFPPSDEQLKSGTASVVCLLNNFYPREAKVQWKVDNALQSGNSQESVTEQDSKDSTYSLSSTLTLSKADYEKHKVYACEVTHQGLSSPVTKSFNRGEC
124 % of HeCon Ab GpH7-A5/GpH7-B3/GpL16-k0 (=100) | GpH7-A5/GpH7-B3 variant K326_10E/GpL16-k0 (antibody, human IgG1, kappa, also called He Ab K326_10E) heavy 1: not shown heavy 2: not shown light: DIVMTQSPLSLPVTPGEPASISCQASESLVHSNRNTYLHWYLQKPGQSPQLLIYKVSNRFSGVPDRFSGSGSGTDFTLKISRVEAEDVGVYYCSQNTHVPPTFGQGTKVEIERTVAAPSVFIFPPSDEQLKSGTASVVCLLNNFYPREAKVQWKVDNALQSGNSQESVTEQDSKDSTYSLSSTLTLSKADYEKHKVYACEVTHQGLSSPVTKSFNRGEC
114 % of HeCon Ab GpH7-A5/GpH7-B3/GpL16-k0 (=100) | GpH7-A5/GpH7-B3 variant K326_08L/GpL16-k0 (antibody, human IgG1, kappa, also called He Ab K326_08L) heavy 1: not shown heavy 2: not shown light: DIVMTQSPLSLPVTPGEPASISCQASESLVHSNRNTYLHWYLQKPGQSPQLLIYKVSNRFSGVPDRFSGSGSGTDFTLKISRVEAEDVGVYYCSQNTHVPPTFGQGTKVEIERTVAAPSVFIFPPSDEQLKSGTASVVCLLNNFYPREAKVQWKVDNALQSGNSQESVTEQDSKDSTYSLSSTLTLSKADYEKHKVYACEVTHQGLSSPVTKSFNRGEC
